Source: patent US20230149507A1, “TREATMENT OF ALT CANCERS” (INSTITUTO DE MEDICINA MOLECULAR JOÃO LOBO ANTUNES, priority 2019, published 2023)
Each block holds one molecule with its values, some of them ahead of it.

Assays:
FANCM-BTR complex = molecular target: T1, FANCM-BTR complex (Homo sapiens, UniProt Q96E14+Q9H9A7); assay: Flag-FANCM immunoprecipitation of the FANCM-BTR complex with MM2 peptides added to cellular lysates; type: binding; conditions: peptide 1-50 μM, lysates of HEK-293 cells expressing Flag-FANCM
T1 construct: expressed in transfected cells; host or cells: HEK-293
T1 sequence (Q9H9A7 1-625): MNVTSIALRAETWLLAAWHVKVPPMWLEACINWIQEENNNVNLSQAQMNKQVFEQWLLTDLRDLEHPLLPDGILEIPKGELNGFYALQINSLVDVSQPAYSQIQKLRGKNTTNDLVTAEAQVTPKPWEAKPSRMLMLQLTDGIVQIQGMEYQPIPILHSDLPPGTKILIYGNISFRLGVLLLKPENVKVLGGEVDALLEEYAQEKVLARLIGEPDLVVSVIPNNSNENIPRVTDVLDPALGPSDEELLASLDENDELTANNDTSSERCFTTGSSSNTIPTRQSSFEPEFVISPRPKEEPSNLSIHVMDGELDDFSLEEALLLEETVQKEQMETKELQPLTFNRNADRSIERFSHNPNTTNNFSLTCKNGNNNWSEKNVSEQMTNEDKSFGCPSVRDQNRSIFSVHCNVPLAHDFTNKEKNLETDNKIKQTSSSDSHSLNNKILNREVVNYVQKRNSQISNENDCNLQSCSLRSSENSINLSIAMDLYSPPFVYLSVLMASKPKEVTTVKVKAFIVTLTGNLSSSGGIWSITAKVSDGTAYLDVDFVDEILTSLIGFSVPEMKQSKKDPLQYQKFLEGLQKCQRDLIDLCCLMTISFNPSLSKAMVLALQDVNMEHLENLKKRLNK
T1 sequence (Q96E14 2-147 limits assumed): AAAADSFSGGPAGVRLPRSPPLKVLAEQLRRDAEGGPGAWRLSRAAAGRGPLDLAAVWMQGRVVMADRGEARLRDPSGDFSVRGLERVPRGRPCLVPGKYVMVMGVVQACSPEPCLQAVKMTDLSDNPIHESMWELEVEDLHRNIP
T1 sequence (Q13472 1-1001 partner): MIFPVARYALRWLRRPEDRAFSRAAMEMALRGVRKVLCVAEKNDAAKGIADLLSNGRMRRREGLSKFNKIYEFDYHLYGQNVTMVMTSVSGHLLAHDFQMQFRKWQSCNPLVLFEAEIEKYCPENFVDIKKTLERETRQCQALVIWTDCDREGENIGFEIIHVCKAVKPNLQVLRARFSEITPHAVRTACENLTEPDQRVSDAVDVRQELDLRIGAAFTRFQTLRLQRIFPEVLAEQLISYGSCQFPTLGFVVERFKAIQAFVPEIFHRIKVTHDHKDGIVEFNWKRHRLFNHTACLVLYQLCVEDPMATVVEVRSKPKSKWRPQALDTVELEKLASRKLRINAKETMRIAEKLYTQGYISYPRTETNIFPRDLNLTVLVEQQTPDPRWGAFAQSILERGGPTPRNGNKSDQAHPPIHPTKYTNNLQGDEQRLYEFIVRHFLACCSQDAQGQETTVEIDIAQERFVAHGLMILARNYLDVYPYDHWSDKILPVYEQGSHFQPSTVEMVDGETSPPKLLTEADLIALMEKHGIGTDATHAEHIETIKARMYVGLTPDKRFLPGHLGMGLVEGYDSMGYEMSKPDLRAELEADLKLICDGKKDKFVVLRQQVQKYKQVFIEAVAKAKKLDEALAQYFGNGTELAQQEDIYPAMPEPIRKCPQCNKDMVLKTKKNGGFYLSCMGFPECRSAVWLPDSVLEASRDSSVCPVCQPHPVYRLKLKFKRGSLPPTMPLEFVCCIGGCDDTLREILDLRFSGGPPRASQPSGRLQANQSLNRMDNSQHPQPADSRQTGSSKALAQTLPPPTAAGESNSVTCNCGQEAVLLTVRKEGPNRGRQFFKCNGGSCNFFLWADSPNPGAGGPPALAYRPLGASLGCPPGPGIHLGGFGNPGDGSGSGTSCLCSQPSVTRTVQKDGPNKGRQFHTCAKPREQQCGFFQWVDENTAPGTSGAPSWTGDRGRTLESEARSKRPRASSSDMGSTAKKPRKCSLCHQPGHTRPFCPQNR
Source text: FIG. 10. Characterization of the MM2-ER fusion protein. (a) Schematic showing competitive inhibition of FANCM-BTR complex formation by the MM2 peptide. […] (c) Representative mitotic spreads showing sister-chromatid exchanges (SCEs) in U-2 OS cells expressing MM2-ER or FF>AA-ER mutant fusion proteins in the presence or absence of 40HT (left panel). Quantitation of SCEs (right panel). (d) Representative mitotic spreads showing sister-chromatid exchanges (SCEs) in HeLa cells expressing MM2-ER or FF>AA-ER mutant fusion proteins in the presence or absence of 40HT (left panel). Quantitation of SCEs (right panel). SCEs are indicated by black arrows. For c and d, scatterplot bars represent the mean±SEM number of SCEs from 15-30 mitotic spreads, *p<0.05, **p<0.005, Mann-Whitney test. NB: The frequency of double labelled mitoses in MM2-ER+4OHT samples was approximately 10% of that in the controls, likely due to significant cell cycle delays introduced by activation of the MM2-inhibitor. As thus, SCE levels are likely underestimated in this experiment.
For co-IP experiments involved the ER-inducible system, cells were lysed in IP buffer (20 mM Tris-HCl pH 7.5, 100 mM NaCl, 10% (v/v) glycerol, 0.5 mM EDTA, 1 mM DTT) supplemented with 1× mammalian protease inhibitor cocktail (Sigma Aldrich) and 50 U/ml Benzonase (Novagen) for 2 h at 4° C., with or without MM2 peptide variants (Mimotopes). Following lysis, NaCl concentration was increased to 250 mM, then the lysate cleared at 16,000×g for 15 mins. Supernatant was then mixed with 1 μg of α-FANCM (Abcam) or α-ER (Santa Cruz Biotechnology) and 20 μl protein G sepharose (GE Healthcare), or using α-Flag M2 agarose (Sigma Aldrich). Following 3 h of mixing at 4° C., beads were washed 4× with IP buffer, and 1× with 50 mM NH4(CO3)2, 0.5 mM EDTA, then eluted with 500 mM NH4OH (pH 11.0), 0.5 mM EDTA. Samples were then lyophilized and resuspended in 1×LDS loading buffer (Life Technologies) prior to immunoblotting.

HeLa cells = assay: FACS cell cycle analysis of FANCM-depleted HeLa cells with added agents; type: cell-based, human; conditions: HeLa cells depleted for FANCM; 20 μM BIBR 1532 for 7 days
Description: When indicated, cells were incubated with 1 μM camptothecin (Sigma-Aldrich) for 3 hours, 0.2 mM hydroxyurea (Sigma-Aldrich) for 16 h, 20 μM BIBR 1532 (Merck Millipore) for 7 days, and 10 μM RO-3306 (Selleckchem) for 18 h. […] For fluorescence-activated cell sorting, cells were trypsinized and pelleted by centrifugation at 500 g at 4° C. for 5 min. Cell pellets were either left untreated for viability assays or fixed in 70% ethanol at −20° C. for 30 min and treated with 25 μg/ml RNaseA (Sigma-Aldrich) in 1×PBS at 37° C. for 20 min. Cells were then washed in 1×PBS and stained with 20 μg/ml propidium iodide (Sigma-Aldrich) in 1×PBS at 4° C. for 10 min. Flow cytometry was performed on a BD FACSCalibur or a BD Accuri C6 (BD Biosciences). Data were analyzed using FlowJo software.

U-2 OS ALT cells = assay: Metaphase-TIFs after FANCM knockdown with siRNA; type: cell-based, human; conditions: compared to the scrambled control; siRNA 30 nM, 72 h
Source text: (a) Representative images of telomere (green) and γ-H2AX (red) colocalizations on metaphase spreads (meta-TIFs) in U-2 OS cells with or without FANCM depletion (left panel). Meta-TIFs are indicated by white arrows. Scale bars are 5 μm. Quantitation of TIFs (right panel). Scatterplot bars represent the mean±SEM. Out of 3 experiments, n≥81 metaphases scored per treatment, **p<0.005, Mann-Whitney test. (b) Native and denatured TRF analysis of U-2 OS cells with or without FANCM depletion. Colored arrows correspond to telomeric DNA species depicted in panel c. (c) Schematic of migration patterns for indicated telomeric species separated by two-dimensional gel electrophoresis (top panel). Two-dimensional TRF analysis of U-2 OS cells with or without FANCM depletion, hybridized under native and denatured conditions to detect the telomeric C-strand and G-strand (left and right panels). Colored arrows correspond to telomeric DNA species depicted in schematic. (d) Representative dot blot and quantitation of C-circle assays of U-2 OS cells with or without FANCM depletion. C-circle levels were normalized to the mean of scrambled control. Error bars represent the mean±SEM from n=3 experiments, *p<0.05, **p<0.005, Student's t-test. […] Out of 3 experiments, n≥150 cells scored per treatment, *p<0.05, **p<0.005, Mann-Whitney test. […]

- FANCM-BTR complex formation (TOP3A binding) (FANCM-BTR complex): unable to inhibit complex formation
Molecule: MM2 peptide containing the FF>AA mutant: MM2 peptide containing the FF>AA mutant (SEQ ID NO: 30) that does not bind to BTR (EDIFDCSRDLFSVTADLGACSPDSDDEILEHTSD; mutated FANCM peptide) [reference compound]

Molecule: MM2 peptide: chemically synthesized peptide (SEQ ID NO: 29) corresponding to the highly conserved 28 amino acids of the MM2 domain (EDIFDCSRDLFSVTFDLGFCSPDSDDEILEHTSD; wildtype FANCM MM2 peptide)
- FANCM-BTR complex formation (TOP3A binding) (FANCM-BTR complex): dose-dependent inhibition of FANCM-BTR complex formation
- FANCM-BTR complex formation (TOP3A binding) (FANCM-BTR complex; listed as MM2-WT): diminishes with increasing concentrations

Molecule: C/C(=C\C(=O)Nc1ccccc1C(=O)O)c1ccc2ccccc2c1 [BIBR 1532]
- accumulation in G2/M (HeLa cells): did not accumulated in G2/M

Molecule: siFANCM1: Silencer Select siRNA FANCM1 (s33619) (SEQ ID NO: 12) (GCUCGUUCUUUGAUUCAGA; listed as RNA, chemistry not given here)
- metaphase-TIFs (meta-TIFs) (U-2 OS ALT cells): significant increase in metaphase-TIFs
